Data set [1] deals with T1, SARS-CoV-2 spike glycoprotein RBD domain (SARS-CoV-2, UniProt P0DTC2 SEQ:1-223). Nature of the data set: SPR; SB1T + 0.1 mM dextran, 25 C. On the technique in general: SPR reads the build-up and loss of mass on a sensor chip optically.
Data set [2] has as its target T1, SARS-CoV-2 spike glycoprotein RBD domain. Nature of the data set: SPR; SB1T, no dextran, 25 C.
Data set [3] concerns the target BSA (bovine serum albumin) (UniProt P02769 P02769:25-607). Nature of the data set: SPR; signal approximately 0. The settings on record: tags: Sigma A7906.
Data set [4] has as its target T1, SARS-CoV-2 spike glycoprotein RBD domain. Nature of the data set: SPR.
Data set [5] deals with SARS-CoV-2 spike glycoprotein S1+S2 domain (ECD) (SARS-CoV-2, UniProt P0DTC2 SEQ:2-1201). Nature of the data set: SPR; 400 nM protein, SB1T, 25 C. The following applies: tags: His; Sino Biological 40589-V08B1.
Data set [6] deals with SARS-CoV-2 spike glycoprotein S1 domain (SARS-CoV-2, UniProt P0DTC2 SEQ:2-673). Nature of the data set: SPR; 400 nM protein, SB1T, 25 C. The settings on record: tags: Elabscience PKSR030481.
For data set [7], the target named is T1, SARS-CoV-2 spike glycoprotein RBD domain. Nature of the data set: ELONA.

Residue numbers refer to the chain shown, from its start.

BSA (bovine serum albumin), sequence (P02769 25-607, one chain of several): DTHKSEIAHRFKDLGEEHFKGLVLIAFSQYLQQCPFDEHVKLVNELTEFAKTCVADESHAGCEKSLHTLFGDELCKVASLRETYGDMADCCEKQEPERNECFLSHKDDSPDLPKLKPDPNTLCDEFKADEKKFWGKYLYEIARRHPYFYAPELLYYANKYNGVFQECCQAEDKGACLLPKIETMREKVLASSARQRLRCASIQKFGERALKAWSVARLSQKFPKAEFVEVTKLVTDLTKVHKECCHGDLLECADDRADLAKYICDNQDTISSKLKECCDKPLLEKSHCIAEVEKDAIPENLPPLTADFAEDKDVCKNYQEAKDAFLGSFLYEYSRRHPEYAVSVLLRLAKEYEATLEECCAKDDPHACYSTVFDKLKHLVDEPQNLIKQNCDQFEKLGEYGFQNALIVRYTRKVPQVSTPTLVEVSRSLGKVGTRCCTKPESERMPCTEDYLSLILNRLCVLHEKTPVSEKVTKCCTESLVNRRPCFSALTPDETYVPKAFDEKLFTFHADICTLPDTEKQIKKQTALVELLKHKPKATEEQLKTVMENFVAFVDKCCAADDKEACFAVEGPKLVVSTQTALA

B1: Binding nucleic acid molecule 8 (ssDNA)
DNA: CCACTGAAATCCGTGCCTAATCTCACCCCACGGAATTCATGGAAAAAAAAAAAAAAAAAAAA
modifications: NG7 (modified thymine, formula 1) at all T 3' of the first 11 nt
By Kd is commonly meant the free concentration of one partner at which half of the binding sites on the other are occupied at equilibrium, for simple one-to-one binding. As for B1, the dissociation constant Kd in data set [1] stood at 5.3 nM; in data set [2] it was 2 nM.

B2: Binding nucleic acid molecule 5 (ssDNA)
DNA: GGTTTAGCCCTCGACTCCAAATGTGCACTCTCCCGGTATCCCTAATCTCACCCGATACCGTTGATGTGCTGCCAATACAAAAAAAAAAAAAAAAAAAA
modifications: NG7 (modified thymine, formula 1) at underlined T, i.e. T residues 3' of the first 23 nt (underlining of some T differs between printings)
For B2, the Kd in data set [1] was 2.8 nM; in data set [4], less than 0.1 nM. In addition, in data set [3], the binding result is given as “no binding”.

B3: Binding nucleic acid molecule 7 (ssDNA)
DNA: B2 DNA with A27T, C28G, T29A, C30T, T31A, C33T
modifications: NG7 (modified thymine, formula 1) at all T 3' of the first 23 nt
As to B3, the Kd is 5.5 nM in data set [1] and less than 0.1 nM in data set [4]. Moreover, the binding result in data set [3] was “no binding”.

B4: Binding nucleic acid molecule 3 (ssDNA)
DNA: GGTATGTCTCCGCCACTGAAATCCCTGACCGCTGACCAAATCTCAGTGCAGATGCAAAGCCGAGGTGTCTTGTATTCAAAAAAAAAAAAAAAAAAAA
modifications: NG7 (modified thymine, formula 1) at all T 3' of the first 23 nt
For B4, the binding result in data set [3] is reported as “no binding”; in data set [5], “binds”; in data set [6] it was “binds”.

B5: Binding nucleic acid molecule 1 (ssDNA)
DNA: GGTATGTCTCCGCCACTGAAATCCGTGCCTAATCTCACCCCACGGAATTCATGGCAAAGCCGAGGTGTCTTGTATTCAAAAAAAAAAAAAAAAAAAA
modifications: NG7 (modified thymine, formula 1) at underlined T, i.e. T residues 3' of the first 23 nt (underlining of some T differs between printings); 3' poly(dA)20 tail unmodified
In the case of B5, the Kd in data set [1] worked out at 3.2 nM; in data set [4] it was 1.2 nM. In addition, the binding result in data set [3] is given as “no binding”.

For the molecule CCACTGAAATCCGTGCCTAATCTCACCCCACGGAATTCATGG (ssDNA, NG7 (modified thymine, formula 1) at all T 3' of the first 11 nt) [Binding nucleic acid molecule 8, 5'-biotin (ELAA)], in data set [7], the binding result is on record as “binds”.

B6: Binding nucleic acid molecule 6 (ssDNA)
DNA: GGTTTAGCCCTCGACTCCAAATGACATGAGCCAGGTGCATCTTGAACGTCATAGATACCGTTGATGTGCTGCCAATACAAAAAAAAAAAAAAAAAAAA
modifications: NG7 (modified thymine, formula 1) at all T 3' of the first 23 nt
Consider B6, for which the Kd turned out to be 6.7 nM in data set [1] and 3.1 nM in data set [2]. The binding result in data set [3] is on record as “no binding”.

B7: Binding nucleic acid molecule 9 (ssDNA)
DNA: TCCGCCACTGAAATCTAATCTCACATTGTAAGCAAAGGAGAATAAAAAAAAAAAAAAAAAAAAAA
modifications: NG7 (modified thymine, formula 1) at all T 3' of the first 15 nt
As for B7, the figures for the Kd in data set [1] and in data set [2] were 20.8 nM and 2.1 nM, respectively.

B8: Binding nucleic acid molecule 12 (ssDNA)
DNA: TGACATGAGCCAGGTGCATCTTGAACGTCATAGATACCGTTGATGTGCTGAAAAAAAAAAAAAAAAAAAA
modifications: NG7 (modified thymine, formula 1) at all T 3' of the first 14 nt
Take B8: the Kd in data set [1] worked out at 7.4 nM; in data set [2], 2.4 nM.

B9: Binding nucleic acid molecule 2 (ssDNA)
DNA: GGTATGTCTCCGCCACTGAAATCTAATCTCACATTGTAAGCAAAGGAGAATAAGCAAAGCCGAGGTGTCTTGTATTCAAAAAAAAAAAAAAAAAAAA
modifications: NG7 (modified thymine, formula 1) at all T 3' of the first 23 nt
As for B9, the figures for the Kd in data set [1] and in data set [2] were 3.5 nM and 1.7 nM, respectively. Further, the binding result in data set [3] was “no binding”.

B10: Binding nucleic acid molecule 4 (ssDNA)
DNA: GGTATGTCTCCGCCACTGAAATCTTGTCCCCTAATAGGTTCCGACTGACAAGTGCAAAGCCGAGGTGTCTTGTATTCAAAAAAAAAAAAAAAAAAAA
modifications: NG7 (modified thymine, formula 1) at all T 3' of the first 23 nt
Regarding B10, the binding result is recorded as “no binding” in data set [3], “binds” in data set [5] and “binds” in data set [6].

B11: Binding nucleic acid molecule 11 (ssDNA)
DNA: TGTGCACTCTCCCGGTATCCCTAATCTCACCCGATACCAAAAAAAAAAAAAAAAAAAA
modifications: NG7 (modified thymine, formula 1) at all T 3' of the first 15 nt
As for B11, the Kd in data set [1] was 16.6 nM; in data set [4], less than 0.1 nM.

B12: Binding nucleic acid molecule 13 (ssDNA)
DNA: GCTGATACTCGGTATCCCTAATCTCACCCGATACCGAAAAAAAAAAAAAAAAAAAA
modifications: NG7 (modified thymine, formula 1) at all T 3' of the first 12 nt
Turning to B12, the Kd in data set [1] is 12 nM; in data set [4], less than 0.1 nM.

B13: Binding nucleic acid molecule 1, 5'-biotin (ELAA) (ssDNA)
DNA: GGTATGTCTCCGCCACTGAAATCCGTGCCTAATCTCACCCCACGGAATTCATGGCAAAGCCGAGGTGTCTTGTATTC
modifications: NG7 (modified thymine, formula 1) at underlined T, i.e. T residues 3' of the first 23 nt
Regarding B13, the binding result in data set [7] is listed as “binds”.

B14: Control nucleic acid molecule (Song et al. 2020 aptamer) (ssDNA)
DNA: CAGCACCGACCTTGTGCTTTGGGAGTGCTGGTCCAAGGGCGTTAATGGACAAAAAAAAAAAAAAAAAAAAA
As to B14, in data set [2], the Kd is 65000 nM.

(Values after patent publication US20240002860, “SARS-CoV-2 SPIKE GLYCOPROTEIN-BINDING NUCLEIC ACID MOLECULE, SARS-CoV-2 DETECTION SENSOR, SARS-CoV-2 DETECTION REAGENT, SARS-CoV-2 DETECTION METHOD, AND SARS-CoV-2 VIRUS DEACTIVATOR” (NEC Solution Innovators, Ltd., published 2024).)
